Experimental data published in a protein production outcome set (Wang et al. 2014).

assay: label from the status in PepcDB records

Sequence | protein production
MRARHASCMHPPSLSADPVALMTDTPASSETSASGWRRALPVIVSLAILAMALHALSSQFTDHGYRQIRHAFRALGAGQITLTLLLGLSSYVCLVGFDWVGLKRTGKQLHPARVGITAFMAHAVGQTLGFAALTGGAVRLRGYGSVGLTLAEIGQVVLMSTLGFIFGAWVLLGLALMLEPEAAARALPITAQAIRIAGIALLVGYVAMLMLVGRQGREFGIRSHRFWLPDRTTVLGVTALSVVELGLAAAAFYVLLPPDSGTGYFGFIGIWLVAVVAGLISTVPAGLGVFEWSLLELLPHVTPAAVLAAALVYRVTYYIVPLLISVAMAAASGLRVPVRVGASTARSVWKALRPWLPQILALAVFAVGAALVIDGTLPTPAARQEVAPLPLIETSHLLVSLGGMMLLLIGQGLQRRSHSAWMLALGVCLLVPPFALLRGSHISVSLSAALAAVALWAARREFYRQGALLDEAWSWRWLSNLGLVLVATFWLLFFVYSHVEYSNDLWWQFATSANAPRALRAALILCVGVIVFGMARLLRGGRRPMPAADAPTLRTLAPILATSTDTQACLALTGDKAFLLDEQSSGFVMMQRYGGSLISMGDPVGSPEVARALIWRFREEADQMGLRTVFYQVGEKHWQTYLDMGLTLVKLGEEAIVPLEGFTLEGRDRADLRQAWNRGKRGGLSFRMLQPEQVDEVLPRLAEVSDQWMEEKSGEEKGFSLGSFDADYLRRFPVAVAEAEGQIVAFANVWWAPAGGELSVDLMRHSAEAPKGTMDFLFIELFLWGQANGYTRFSLGMAPLSGLAEHRLAGRWNRFASLVARHGERFYGFSGLRRFKSKFDPTWRPRYLVAPGGMHLPAALLDVTRLISADPRRQE | failed
MRCANCGNELKAGSLYCDVCGHPVQIVPDYNEFDDYLDNLVGNDDRRTDGQKTAKPVSDRTIRFDDPVREQLHSAGQWNGQKTDRMSQSVKQQVRQAQTGEQQSQTKQPCEKPQSDGQRAKRAQQKKIIIISAVVCAVAIVILIAAITRNVSRSHDNSFDYQVKQAKAAYSAGNINSAVSYYEKALSIDSDNTDVRFALADIYMSKKDYDAALVLYQEIINIDPKSKEAYKQLISIYESKKDYDAIVALRESAKDASVLKLFADYTVSKPQFSKSSGKYGETMELSIDADSDTKIYYSYDSDDPLTRGERYYSPITLDKEGTYEITAVAVDDRGIKSEVASAKYEIEFEAPDAPEIDPDGGTFGAQTDITITVPENCKVYYTWDSSDPSAASTEYTAPIPVPEGNNVLSVIAIDQNTGKCSDIYRSRFEFYMN | failed
MRDHPADRLQSITVTAFYQEPNVPTHSLSDYTSWIERTWQGQVSFTELVTYAETLNSHPALCAALYRTWLQRNTGVFNSVAWFNLGVILFAENNLIDSIEAFQKALALSPAFPQARINLGLALERQGNAEAAIEQWQAVVENAITPEADQNTGPNQADQIKNLTMALNNIGRLQETRRQYQAATQALEKSLQLDPDQPDAIHHLIFQRQKQCQWPVYAPVGKVTEAVLHEHTSALAMLNISDAPEAQLTAALNYSRRKIPADLPRLSPANGYRHDKIRVAYCSSDFCTHPVAMLTVELFEHHDKNRFETYAFCWSPDDGSTLRQRILSAVDHYIPVHGKSDDEVAQLIRQHEIDILIDLQGQTSGAKTRMLAMRPAPMQITYLGLPATTGLPGIDYVIADRYLIPEEYARFYSEKPLYMPDVYQVSDRKREHSPAPTRKDCGLPARKFVFCSFNNNHKYTLEVFTTWMNILRRVPNSVLWLLADNPWARENLQKQAKAQGIDPKRLVFAERTMPADYLARYLVADLFLDTFPFNAGTTANDALWMGLPVLTMSGRSFASRMAGALLTAADLPELITHDLQTYEDKAVALAADAKARKTMRQKLALAKESGPLFDSLRFTRNLEQQYIALVSELQNPSQHINISAQPEPTKLGEPAQPNPIIATVQEAEALQARGDTQGAIQLYRQWLEHAHSGDEWIAQFNLGVLLRDGGDITGAQQAFQAVLKQKPDFVQARAALGKLPAPVTTESQKHGAIIGPLQTNSPISTKSKEQITQIFSETPKIKLLVEGWRGINHSFALVNQYHLYEWMRSSQLHIYHRDMPLLFSHWETNKNRGNTGLPGTYSQRLAQVQHWSGQTYDACFRIYSPVTLAPDDKHPVSTFLVTELGLDETQIAHFRPNLKAYFNMGGNIVTPSHWSKERIIEAGIPAEHIHLISHGVASNIFHPMHSDERAIHRQRLGFDREAVIFLNVAAPIWNKGLDLLIQAFVQCFHQNPHTRLLIKDQQAVYGISTKDTVLREITLLGESKNESLLNAIRVIPDLNLLQLRELYCIADYYVSPYRAEGFNLPVIEALVCGTPVIVTEGGATQDFCSEKNALFIEAVPYRNVKINDRHVNAYQAPILDSLITHLNVCAQDKPFSESQRLQNAASIAKNFTWAKAADTISRLFTQSNDCNTSTSQITGALHEEPQYCN | failed
MRDLLNDLSEGLSHPDPILRAQIQMQKPLPKRFYKDVTVADVEEGGFTILLDGKPLRTPAKKPLVAPSRALADLLRDEWDAQKEVVNPVVMPVSRHVNTAIDGIASDTQAVFEDILRFSSSDLLCYRAGDPEALVARQTDYWDPVLDWATNVLGARFILVEGVMHRDQPREAIAAFAVTLKKYDTPIALAALHTMTSLTGSAILALALAEGELTLEEAWALAHLDEDWTAEQWGEDEEALERRAVRLIDMRAALNVLESLKSAS | not failed
MRDPRLAPFRAPALAFAALLLVSAASGAVLFVLKLGTTAARVQEFYLGSEARFTAPRTLGGILEVAVPHLVAVPLVLFAVAHLVAFTRALRPRPYAALVRLSFGCALAGALAGLGIRFVAPWLAWVKIGAFVGLEAALLAWAALLVGLFLPDRAEAHARRAAAADGASPQRVPGAPRRD | failed
MRDTRESRLLLVLLVAIAFALITVDIRGGQDSPVDGARQAAATVFGPIENGVSSAVDPVGNAVAAVRDSGSRHDRIAQLEHDNAALKAKLGSDDRNRSRLKQLNKMIRVAGEGQYGIKGAEVIGIGAAQGFSWTVTIDVGANDGIKRDMTVLNGDGLVGRVTTVGPNAATVLLANDPDFTVGTRMESSDELGFASGQGDRPLRVQLLNGKAKVVKGDRLVTFGSQADRPFVPGVPVGVVSRVDPSGGDLTRTVYVTPYVSFTKLDIVGVVVAAPKKDPRDEVLPPKPRPTPTPTVTVTVTPSANASADGQQQQQ | failed
MRDTTWHVPEDDLRAYVQGELAPPRLWSADTHLAACERCRAALAEAGDPVALDAAWERLDAELDAPRPGMFESLLVRAGVADHTARLLTATPVLRRSWLGAVAFLLVMTVGIVLTVDSPALFLALAPLLPLAGVALSYGPVLDPTYEMAVVAPLHGFRLLLIRTLAVLATGLLLNGLATLALPGYGLRALAWLLPALALTGTGLALTPRLGPVLAPALTGGAWIGLLLVAQARTHETLAPFTMAGQGAAAVVAALAAGLLYRTRDRFDSVAARLPFAHLPGGGAV | failed
MRDWPAFLLALLVAFALWYSLQERAPVVERSLKVPLQVVGLGEGRRALGLPREVLLRLRGPAPLLEGRALPVSAYLDLSGAEGEVVREVRVAAPQGVEVLEVVPARVGVVVEVEAQRQIPVEVLAQGAWVLTDPAFVEAVGPESQVEAAVSAVGLDLGDEVVLFPLGPEGPLEGVELRPNRVRVVERREALFLKEVPLSLNPPPGRRLLDYAPKTVRLVGPREALEGLAGVTATLQEALGPGEVEVAVAPDLPPGVHTLGPVRVRVALELEHHHHHH | failed
MREAGDAIARLRTLRDAAGRLVASRASLLRRAPVGLVVAAVVIPLVGCDTGPNFWFHKRASACPRPQVAQGVSGQFNQQQQEIRALRQGGFRGDFFAQLELARRYEGQRAVDKNLEDPVEAAVWYAMALANSGGYAPIAAYERRGKESRAVSRFDDCRAFERRSAYGALDRLLSRMSTEEREKVRNRVIYILSTQSADGFRTLARMHDGYFGPFGEPSDNLQAIEAYGKPSQPGAPAALDLFRRNDVDAYLYNYLAVQTGDVSAYVMLKDFERSSPQRASYGSFVETKAKRWIPPYEFYPPESPDSGVPHSDEADLSGEARESALYRIAELPFVHVGESLAYLRVIPTAVLDEKMLSVTEVQTLQSMIGRPNTGRLAPIEKVRAVQYAAVNGSSKAQLVLAVMYSEGVGVPRDYARAYHWYEEAERQGSAEAKYAMSTFFSLGLQGVADQDRAKAVVYQIDGALAGFKPSAWRLQQLLAQVSRPPRAAGERPQPRPIYGADDYRAAPRADDRDPRQDQPGSDRGGRPYNEGNY | failed
MREDAARDRMRGFGFHEHVISESIKELLEVYEDQWFLIEDDSYGPLLAICLEKQEEKEKQLAEVQANQLPENHNEEMAEEEQPNQLAVEIHEEEKEQEQDMHIEYGRDQADELSINSEAVNDPSPAAIHLGEASSDYAQSSVRGVENLHCGWLIDEEETDPEEETDPEEKETEPEDPKEKETEPEEDSDGDDDEIIQLTPEPLCEELQELLREVRGQKRRKKEMRWDK | failed
MREEHSPVRDGRRSGGLRSLIDPRFLSSFALNDGGSISGRRSSYLKLPPQGRIKLSVVKLNGSLFDVEVAKDCSVAELKRAVEQVFTISPLEGHGMISWSHVWGHFCLCYRDQRLVNDKTSIRYLGLNDGDQLHFVRHLSIDHSPMNKRSKSPSCKRYLELDVSSIVNEIQIQNQNQNGVDDVAEKCYPGAQDELPAAESRLVNLIKGWLPYAGRWGVSRKGPECRSGPSRFSLKHFGGRPKM | failed
MREEKIREALNAHWQASAAGDFDAEHDIYDDDAICDYPQSGERILGRMNLQALRSHHPGKPAGFEVRRIQGEGNLWITEYSISYNGRPAYTVSIMEFRNGKVVHETQYFSDPFEAPGWRSQWVQQIG | not failed
MRELTSNEMNNVSGGDLASRLEASIVGSVAGFFAGSIWGGTRGGDGGGILGVGSIGQGVGMIYGGIAGAIGGAIGAFVIDKTLTYTYTTGFMNSLFSGTFAK | failed
MREMQIMSQPEQSRLDLFIDRMVSQRACLEHAIAQTAGLSGPVYELGLGNGRTYHHLRQHVQGREIYVFERAVASHPDSTPPEAQLILGDIRETLPATLERFGATASLVHADLGGHNREKNDRFARLISPLIEPHLAQGGLMVSSDRMYFEGLEELPLPPGAVVGRCFIYRRG | not failed
MRENSTKPPQPHISEPADVAESRFISVAIPTFRRPDTIRRAIDSVLHQDFSNWELIVSDDEGPDGQTWAMLTDYARADPRIRIVENRRGRGQVENTNNVMLACRGSWIKLLHDDDWLAPKALGTFAQVAQQYPSAAFITCATNRVEDDRVKLRSARPGKKHVTVCSSQQTLKDLYLVRTTRSFGIIPSSLLVNSIVVQNGCLMRTYKSITAGVDQLFFIDLARHGDMVMIEDGLIFYDATNHSSVTASTTFDDVDRETIDLKHLTWSLIEDKHELPDPETIAGALQVARLRSRFRHQPWGSTIRHALQIFHPSVTKAVNQDIFARVQAVLRRRLRRTNW | failed
MREPMTWRTSPGQTADASRHPAIPSRSPLASRALSFLGALSLLTFAATPVLAESTPTAAPPQFAVESPKAASSLLLSVAHAGKRLVAVGDRGHILLSDDDGKTWTQAKVPTRQLLTSVFFVNERKGWAVGHDAQILVSDDAGSTWARQFEDLGREAPLLDIWFADEQHGLAVGAYGALLETRDGGQHWEDVSERLDNEDQFHLNAIAAVKDNGLLVVGEAGSLFRSKDWGATWEKLEGPYEGSLFGAIGTADAGGVLVYGLRGHLFRSADFGDSWEEIPLKAASGDLEFGLSDGALLADGRIVVVGHGGSVLESTDGGRSFSVFNRPDRLSLAGVSATGDGHLILVGQGGVHLAAANGAALEQQQ | failed
MRERRYSSTSPERLAAALFDVAAESGLEGASVREVAKRAGVSIGAVQHHFSTKDEMFAFALRTLVDKLLARLSEVERGGDPARALFAAMSQLLPLDEARSREAHVMAAFAVRAATSPSLAEIRRKTLFTIRTGLSAVLIGIGTPEAETRAALLLATVDGLALDAIGSPALYPPEYLEHALDIQIGMILQGADVVPSSSIELAS | not failed
MRETFEIGEIVTGIYKTGKYIGEVTNSRPGSYVVKVLAVLKHPVQGDLHNVKQANVPFFHERRALAFREQTNIPEQMVKKYEGEIPDYTESLKLALETQMNSFSEDDSPFAERSLETLQQLKKDYKL | not failed
